Data as given in the supplement of paper PMC12042874.
± gives the uncertainty stated by the source.

Assay: amyloid nucleation score (Sup35N fusion, yeast selection) (log enrichment); library NNK3; higher = more nucleation; inactive = no reads after selection
Procedure, shortened: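 The nucleation score, computed with DiMSum, is the log enrichment of output over input reads, centred on the mode score of non-aggregating sequences. Sequences with under 100 input reads were dropped. Reads were generated by Illumina sequencing of plasmid inserts from psi-negative yeast with Sup35N fused to peptides of 20 random codons, induced with 100 μM copper sulfate for 24 hours and grown 7 days at 30°C on medium lacking adenine and uracil.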
Work on HFCPVRKGGAGIRYFYCSCW yielded an amyloid nucleation score of 1.7 ± 0.12.
In the case of HFFLLMLSYSYYDCVFRYKC, the amyloid nucleation score is reported as “inactive”.
For HFNRVLVPYAFSFIGKMEWF, the amyloid nucleation score was “inactive”.
For HGKKRNGRSPYINGFYLCYW, the amyloid nucleation score was “inactive”.
For HGRAYSRNT, the amyloid nucleation score was “inactive”.
For HGVNT, the amyloid nucleation score was “inactive”.
With HGVPYAIEASMLMFYLTFWR the amyloid nucleation score was “inactive”.
HHGWVVYNWVDKVINSHIVG gave an amyloid nucleation score of 0.478 ± 0.28.
In the case of HHHSATLYFTFMSVTE, the amyloid nucleation score is reported as “inactive”.
In the case of HHKITCLNRW, the amyloid nucleation score is reported as “inactive”.
Substance HIFFFSPKSVVHVIASRGCL has an amyloid nucleation score of 1.59 ± 0.081.
With HISGYNDYMFDP the amyloid nucleation score was “inactive”.
With HITLKSYARIV the amyloid nucleation score was “inactive”.
Work on HITLRYLNL yielded an amyloid nucleation score of 0.692 ± 0.12.
With HIVSRP the amyloid nucleation score was “inactive”.
In the case of HKDMVNASLPGITSARWLGR, the amyloid nucleation score is reported as “inactive”.
In the case of HKEVMKNLCIFYPTDEMYRV, the amyloid nucleation score is reported as “inactive”.
Substance HKFFAYDGGDRKRGIFGGWL has an amyloid nucleation score of 1.25 ± 0.1.
With HKLYEWACSRSTALNYIGQI the amyloid nucleation score was “inactive”.
In the case of HKMRRSLQFNEMGLFSPKVY, the amyloid nucleation score is reported as “inactive”.
In the case of HKRTTNIPFRFSNLC, the amyloid nucleation score is reported as “inactive”.
In the case of HKTLFIFS, the amyloid nucleation score is reported as “inactive”.
For HKWSAAIEIGSVKDNRIKLL, the amyloid nucleation score was “inactive”.
With HKYLWCIPWETLCKTWPFFS the amyloid nucleation score was “inactive”.
For HLCAVHKQFFYGSTGGVYTR, the amyloid nucleation score was “inactive”.
Substance HLCDFPLEVKTLFFLL has an amyloid nucleation score of 0.508 ± 0.17.
In the case of HLCRFYSSFGDSTSSRLSGN, the amyloid nucleation score is reported as “inactive”.
For HLGDGTA, the amyloid nucleation score was “inactive”.
For HLGFF, the amyloid nucleation score was “inactive”.
With HLGKRNEKNTVLARLNFGQ the amyloid nucleation score was “inactive”.
For HLGVGG, the amyloid nucleation score was “inactive”.
In the case of HLMFCNHMALCVFFLQQEF, the amyloid nucleation score is reported as 2.21 ± 0.074.
For HLNGVALFNW, the amyloid nucleation score was 0.917 ± 0.11.
In the case of HLRWMTEKGPVRNVCVRGCH, the amyloid nucleation score is reported as “inactive”.
In the case of HLTIVDWSPRESSSWIMRFT, the amyloid nucleation score is reported as “inactive”.
HLVCYLWE gave an amyloid nucleation score of 1.71 ± 0.093.
With HMCCKYVPRNKSGSLVFKRG the amyloid nucleation score was “inactive”.
With HMCIG the amyloid nucleation score was “inactive”.
With HMNDASPGTAKFEIV the amyloid nucleation score was “inactive”.
In the case of HMPDFVCLFNHVMPWIWIRV, the amyloid nucleation score is reported as “inactive”.
For HNASGCWWDSALPITFRRLG, the amyloid nucleation score was “inactive”.
For HNASKRMDICKASSVYKWRI, the amyloid nucleation score was “inactive”.
With HNNTIVASWRHDNRACA the amyloid nucleation score was “inactive”.
With HNNYHYIVRSFVGI the amyloid nucleation score was 1.01 ± 0.28.
For HNQTDSASVIWFSYVWAFVG, the amyloid nucleation score was “inactive”.
For HNRKYYTI, the amyloid nucleation score was “inactive”.
With HPGFTWY the amyloid nucleation score was “inactive”.
For HPVGACCLQLRFGLYCICVA, the amyloid nucleation score was 0.023 ± 0.26.
With HQKALTAVMWFNNRRGGLFG the amyloid nucleation score was “inactive”.
Work on HRDNLWRWNFFCPNY yielded an amyloid nucleation score of 0.993 ± 0.12.
For HRKKYFLSPIVGPRTPRLCT, the amyloid nucleation score was “inactive”.
With HRPRLGI the amyloid nucleation score was “inactive”.
In the case of HRRIPL, the amyloid nucleation score is reported as “inactive”.
For HRTCITTNDDCLSRGTLP, the amyloid nucleation score was “inactive”.
In the case of HRTLVMGP, the amyloid nucleation score is reported as “inactive”.
For HRYASVGSTYWGYKVDLLWC, the amyloid nucleation score was “inactive”.
With HSDILRFCLMVNKDTVHSVL the amyloid nucleation score was “inactive”.
For HSEADDSLTGYFALVATRVF, the amyloid nucleation score was “inactive”.
HSITNITCSFDLAFLRMHVL gave an amyloid nucleation score of 0.871 ± 0.11.
Work on HSSMIIRLWLDVVVQIRGQ yielded an amyloid nucleation score of 0.575 ± 0.28.
For HSSVSMGLVGGSTE, the amyloid nucleation score was “inactive”.
In the case of HSVASDYRTAFLLSHT, the amyloid nucleation score is reported as 1.39 ± 0.089.
For HSVFFY, the amyloid nucleation score was “inactive”.
In the case of HSVFISLGMFRPVTSYL, the amyloid nucleation score is reported as “inactive”.
With HSYFDFYSYDSYNVRHRSVK the amyloid nucleation score was “inactive”.
In the case of HTLLHEF, the amyloid nucleation score is reported as “inactive”.
In the case of HTRLAPWSMDEGRAV, the amyloid nucleation score is reported as “inactive”.
With HVIHGCNSIFYSVS the amyloid nucleation score was “inactive”.
In the case of HVLLDPEIITA, the amyloid nucleation score is reported as “inactive”.
With HVMTHFG the amyloid nucleation score was “inactive”.
With HVSAARMFSSYDPRKPGENM the amyloid nucleation score was “inactive”.
Substance HVVFLSSMVATTLLWFG has an amyloid nucleation score of 1.26 ± 0.12.
For HVVVKK, the amyloid nucleation score was “inactive”.
Work on HWAVRH yielded an amyloid nucleation score of 0.212 ± 0.42.
For HWKLHALGRWAGQGFTR, the amyloid nucleation score was “inactive”.
For HWLTSSVKSLTPRSGQKGLD, the amyloid nucleation score was “inactive”.
In the case of HWSRFQYGLVFRNFIVQNLD, the amyloid nucleation score is reported as “inactive”.
In the case of HWVLQYRCSARKRSHLRYSM, the amyloid nucleation score is reported as “inactive”.
Work on HWVWIGVCLYNDRRGTGICV yielded an amyloid nucleation score of 1.15 ± 0.16.
With HYAAFFYLLINMTGHAHFLK the amyloid nucleation score was “inactive”.
For HYAASSLYLTATHGFICSMC, the amyloid nucleation score was 1.73 ± 0.073.
In the case of HYCMRN, the amyloid nucleation score is reported as “inactive”.
In the case of HYEVRGVLFAMPPCGNI, the amyloid nucleation score is reported as “inactive”.
With HYKLSSMVSVYLLTIL the amyloid nucleation score was -0.307 ± 0.88.
For HYLLACSYDRFFSRSSAYSL, the amyloid nucleation score was “inactive”.
For HYLRHHIAILSLATGLMETE, the amyloid nucleation score was “inactive”.
With IADDQTYLLVLLFYFIKKLN the amyloid nucleation score was “inactive”.
For IAFATFVVTFIMMEEMFFKN, the amyloid nucleation score was “inactive”.
For IAGLSNNTTDGLLRISHRYL, the amyloid nucleation score was “inactive”.
For IAKLVKFEEFRMQDCYIDWL, the amyloid nucleation score was “inactive”.
For IALKSGMVCRYRYHIGGRIS, the amyloid nucleation score was “inactive”.
With IALLHQKHIG the amyloid nucleation score was “inactive”.
For IALLLQSQLMRHGGFASWNR, the amyloid nucleation score was “inactive”.
With IALLWQAHLWRHDWKFYFDS the amyloid nucleation score was “inactive”.
For IANLRAFILFMCDMKSTNPK, the amyloid nucleation score was “inactive”.
For IAYKFWGSNVLDR, the amyloid nucleation score was “inactive”.
With ICDDMVGVC the amyloid nucleation score was “inactive”.
In the case of ICGCPTYCNEANLLLERN, the amyloid nucleation score is reported as “inactive”.
For ICGMLR, the amyloid nucleation score was “inactive”.
For ICPSNFWMFCSCYWSMLRNF, the amyloid nucleation score was “inactive”.
ICSYTSVYSRKW showed an amyloid nucleation score of 0.404 ± 0.35.
In the case of ICTECAYFSTWRHSMCITWG, the amyloid nucleation score is reported as “inactive”.
In the case of IDAYPVWELITLFLFGLMLY, the amyloid nucleation score is reported as “inactive”.
In the case of IDFIVLSSL, the amyloid nucleation score is reported as “inactive”.
In the case of IDKVLGPKVPAHRTSGGLSK, the amyloid nucleation score is reported as “inactive”.
For IDMFGSWFSCILGEKNQLGS, the amyloid nucleation score was “inactive”.
For IDNMMYVV, the amyloid nucleation score was “inactive”.
IDVKSLSWKMYRRLGTIPYT showed an amyloid nucleation score of -0.317 ± 0.93.
With IEDAMVFLGTNSQTICLFNV the amyloid nucleation score was “inactive”.
In the case of IEFFEYVCVMFFCC, the amyloid nucleation score is reported as “inactive”.
In the case of IEGTAMTVTFTFNPYPFHET, the amyloid nucleation score is reported as “inactive”.
With IELERMNGL the amyloid nucleation score was “inactive”.
For IELRM, the amyloid nucleation score was “inactive”.
In the case of IERLTCIYRSFESHLAGFVG, the amyloid nucleation score is reported as “inactive”.
In the case of IEVIYGV, the amyloid nucleation score is reported as “inactive”.
With IEVYAGTF the amyloid nucleation score was “inactive”.
Substance IFFQCNVAMQKDSDAKGTYV has an amyloid nucleation score of 1.84 ± 0.067.
For IFGCFSCSVSMFIDNAVMSL, the amyloid nucleation score was 2.55 ± 0.066.
Substance IFIGVGNVGEVLVIYSWQRN has an amyloid nucleation score of 0.035 ± 0.48.
For IFILRLDIIALLNVTGIRIW, the amyloid nucleation score was “inactive”.
IFLLAVNSGINVTGCPLPKG showed an amyloid nucleation score of 2.28 ± 0.09.
For IFNWFDWIFRFSTTSPECLT, the amyloid nucleation score was “inactive”.
In the case of IFVNSTVLFLMHVCCLSVIS, the amyloid nucleation score is reported as 2.12 ± 0.068.
With IFVSCCLLRLSAGWVVKLIR the amyloid nucleation score was “inactive”.
With IGCWTSYSWNRSRKFYMQQE the amyloid nucleation score was 0.799 ± 0.17.
Substance IGIINMSLN has an amyloid nucleation score of 1.19 ± 0.11.
In the case of IGKSRFKCMSVVRSRFT, the amyloid nucleation score is reported as “inactive”.
For IGLSSHISWYE, the amyloid nucleation score was “inactive”.
Work on IGNAFFETRLVFGRH yielded an amyloid nucleation score of 1.86 ± 0.081.
For IGPVTLKERETRTP, the amyloid nucleation score was “inactive”.
With IGSNRRSFEVCTYIASKIPL the amyloid nucleation score was “inactive”.
In the case of IGSPSHLYKYHCVGFRVSSQ, the amyloid nucleation score is reported as “inactive”.
With IGTLSNLLTKGCKYYGVNIC the amyloid nucleation score was “inactive”.
For IGVLCALDGISRIAFFSLLL, the amyloid nucleation score was “inactive”.
With IGWYYSYITRKSENWVLVAL the amyloid nucleation score was “inactive”.
For IHFLNWSARM, the amyloid nucleation score was “inactive”.
In the case of IHGPGCRSCERSSVGLRSGL, the amyloid nucleation score is reported as “inactive”.
With IHPVNLRVLSFGHIWCWYLR the amyloid nucleation score was “inactive”.
With IIASDLSLSVVNVFN the amyloid nucleation score was 0.341 ± 0.31.
For IIFDR, the amyloid nucleation score was “inactive”.
With IILFINATGRIRSWCDEYGL the amyloid nucleation score was 0.681 ± 0.27.
For IILTIGRMGLFNMAK, the amyloid nucleation score was -0.152 ± 0.47.
With IINLQSWQHLLNRHGTELSV the amyloid nucleation score was “inactive”.
In the case of IIPTD, the amyloid nucleation score is reported as “inactive”.
In the case of IIQALVF, the amyloid nucleation score is reported as “inactive”.
In the case of IIQDYGTVVD, the amyloid nucleation score is reported as “inactive”.
In the case of IIRVLNWYHYIEAKTLNSLR, the amyloid nucleation score is reported as “inactive”.
In the case of IITYKVS, the amyloid nucleation score is reported as “inactive”.
For IIVVCDSDRLFLPNQPPNVI, the amyloid nucleation score was “inactive”.
For IKFSYKCS, the amyloid nucleation score was “inactive”.
In the case of IKIHYF, the amyloid nucleation score is reported as “inactive”.
In the case of IKMSLAELTIFRCLWDCPNS, the amyloid nucleation score is reported as 2.42 ± 0.077.
With IKPSAS the amyloid nucleation score was “inactive”.
IKSLFVGGFSLNVTPTHKGR showed an amyloid nucleation score of 1.57 ± 0.13.
For ILADSCGV, the amyloid nucleation score was “inactive”.
For ILCLVAVLGASRGYVMAEWY, the amyloid nucleation score was “inactive”.
With ILCSSDCDSYSLQPLFGFPC the amyloid nucleation score was “inactive”.
With ILDTEHYLMYKVSPAVASLS the amyloid nucleation score was “inactive”.
Work on ILFSISSVMF yielded an amyloid nucleation score of 0.605 ± 0.19.
With ILIRHDAMNRYPQC the amyloid nucleation score was “inactive”.
In the case of ILKKRFRMVPLK, the amyloid nucleation score is reported as “inactive”.
With ILKSTELWKRESQFSQRVGA the amyloid nucleation score was 4.44 ± 0.057.
For ILLCRKYWFFRFTMVV, the amyloid nucleation score was “inactive”.
